Reference: US20130184211A1 (NEW YORK UNIVERSITY, published 2013)

T1: 1:1 binary complex of the ectodomains of FGFR1c and Klotho (human; murine, UniProt O35082 35-982)
T1 construct: range 35-982; also called FGFR1c-Klotho complex; binary FGFR1c-Klotho complex; not shown: C-terminal FLAG tag
T1 sequence 1: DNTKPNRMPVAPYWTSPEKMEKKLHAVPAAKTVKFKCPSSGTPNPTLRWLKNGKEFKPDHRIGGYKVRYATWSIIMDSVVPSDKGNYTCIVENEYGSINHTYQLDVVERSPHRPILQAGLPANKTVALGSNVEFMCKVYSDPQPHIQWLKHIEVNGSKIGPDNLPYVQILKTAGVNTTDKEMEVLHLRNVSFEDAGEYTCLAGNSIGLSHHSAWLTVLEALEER
T1 sequence 2: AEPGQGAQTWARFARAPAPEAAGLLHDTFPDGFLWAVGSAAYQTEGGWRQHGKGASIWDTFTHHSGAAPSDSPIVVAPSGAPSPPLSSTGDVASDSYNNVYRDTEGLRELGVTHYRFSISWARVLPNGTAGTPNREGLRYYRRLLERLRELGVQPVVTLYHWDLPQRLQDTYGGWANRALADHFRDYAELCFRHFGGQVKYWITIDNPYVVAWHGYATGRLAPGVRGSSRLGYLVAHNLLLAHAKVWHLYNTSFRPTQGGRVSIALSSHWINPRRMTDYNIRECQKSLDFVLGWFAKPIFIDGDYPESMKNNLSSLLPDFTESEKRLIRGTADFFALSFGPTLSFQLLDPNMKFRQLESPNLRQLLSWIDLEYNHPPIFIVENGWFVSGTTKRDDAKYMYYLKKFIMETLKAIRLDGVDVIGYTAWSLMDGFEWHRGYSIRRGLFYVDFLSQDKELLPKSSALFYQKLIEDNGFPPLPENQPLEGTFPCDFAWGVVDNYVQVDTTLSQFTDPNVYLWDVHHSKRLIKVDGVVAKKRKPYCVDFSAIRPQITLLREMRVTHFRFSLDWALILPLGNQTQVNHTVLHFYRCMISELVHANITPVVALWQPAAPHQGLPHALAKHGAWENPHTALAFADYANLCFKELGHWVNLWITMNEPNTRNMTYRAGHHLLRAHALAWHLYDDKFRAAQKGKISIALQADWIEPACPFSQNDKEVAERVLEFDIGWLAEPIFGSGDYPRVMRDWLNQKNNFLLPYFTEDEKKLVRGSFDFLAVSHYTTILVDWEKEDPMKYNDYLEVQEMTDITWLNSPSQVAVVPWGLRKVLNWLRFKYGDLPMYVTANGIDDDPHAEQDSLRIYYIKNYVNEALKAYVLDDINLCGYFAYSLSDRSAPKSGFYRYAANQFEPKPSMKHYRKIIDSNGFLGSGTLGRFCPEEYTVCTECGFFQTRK


Assays:
[1] = target: T1, 1:1 binary complex of the ectodomains …; test: SPR competition; FGF23^28-251 immobilized; reference FGF23^28-251 in solution
Excerpt: To analyze FGF23 binding to the binary FGFR1c-Klotho complex, FGF23²⁸⁻²⁵¹ was coupled to a chip, and increasing concentrations of 1:1 complex of the ectodomains of FGFR1c and Klotho in HBS-EP buffer were passed over the chip. To measure binding of the C-terminal tail of FGF23 to the binary FGFR1c-Klotho complex, FGF23¹⁸⁰⁻²⁵¹ was immobilized on a chip, and increasing concentrations of 1:1 complex of the ectodomains of FGFR1c and Klotho in HBS-EP buffer were passed over the chip. To examine whether the C-terminal tail of FGF23 can compete with full-length FGF23 for binding to the binary FGFR1c-Klotho complex, FGF23²⁸⁻²⁵¹ was immobilized on a chip. Increasing concentrations of FGF23¹⁸⁰⁻²⁵¹ were mixed with a fixed concentration of 1:1 complex of the ectodomains of FGFR1c and Klotho in HBS-EP buffer, and the mixtures were passed over the chip. As a control, competition of FGF23 in solution with immobilized FGF23 for binding to the binary FGFR1c-Klotho complex was studied. Increasing concentrations of FGF23²⁸⁻²⁵¹ were mixed with a fixed concentration of 1:1 complex of the ectodomains of FGFR1c and Klotho in HBS-EP buffer, and the mixtures were passed over the FGF23 chip. […] As a control, competition of FGF23 C-terminal tail peptide in solution with immobilized FGF23 C-terminal tail peptide for binding to the binary FGFR1c-Klotho complex was analyzed. […]

[2] = target: T2, complex of V5-tagged FGFR1c and FLAG-tagged membrane-spanning murine Klotho isolated from transfected … (murine, UniProt O35082 35-1014); test: co-immunoprecipitation competition; competitor FGF23^28-251
T2 construct: Isolated from cell lysate on anti-V5 agarose beads; also called FGFR1c-Klotho complex (co-immunoprecipitated); binary FGFR-Klotho complex; not shown: FGFR1c, V5-tagged, expressed from a vector in HEK293-Klotho cells
Excerpt: (§1) Co-immunoprecipitation may also be used to determine that an agent specifically binds the binary FGFR-Klotho complex. One aspect of the present invention utilizes co-immunoprecipitation studies. Subconfluent cultures of a HEK293 cell line ectopically expressing the FLAG-tagged membrane-spanning form of murine Klotho were transfected with expression vectors for V5-tagged FGFR1c, FGFR3c, or FGFR4. Two days later, the cells were lysed, and FGFR-Klotho complexes were isolated from cell lysate using anti-V5 agarose beads. The beads were then incubated with either FGF23¹⁸⁰⁻²⁵¹ or FGF23²⁸⁻²⁵¹ alone, or with mixtures of FGF23²⁸⁻²⁵¹ with either increasing FGF23¹⁸⁰⁻²⁵¹ or increasing FGF23¹⁸⁰⁻²⁰⁵. Bead-bound proteins were resolved on SDS-polyacrylamide gels, transferred to nitrocellulose membranes, and labeled using antibodies to Klotho, FGF23, and V5 epitope tag.

[3] = target: T3, complex of V5-tagged FGFR3c and FLAG-tagged membrane-spanning murine Klotho isolated from transfected … (murine, UniProt O35082 35-1014); test: as above
T3 construct: Isolated from cell lysate on anti-V5 agarose beads; also called FGFR3c-Klotho complex; binary FGFR-Klotho complex; not shown: FGFR3c, V5-tagged, expressed from a vector in HEK293-Klotho cells
Excerpt: as §1

T3 sequence (O35082 35-1014, one chain of several): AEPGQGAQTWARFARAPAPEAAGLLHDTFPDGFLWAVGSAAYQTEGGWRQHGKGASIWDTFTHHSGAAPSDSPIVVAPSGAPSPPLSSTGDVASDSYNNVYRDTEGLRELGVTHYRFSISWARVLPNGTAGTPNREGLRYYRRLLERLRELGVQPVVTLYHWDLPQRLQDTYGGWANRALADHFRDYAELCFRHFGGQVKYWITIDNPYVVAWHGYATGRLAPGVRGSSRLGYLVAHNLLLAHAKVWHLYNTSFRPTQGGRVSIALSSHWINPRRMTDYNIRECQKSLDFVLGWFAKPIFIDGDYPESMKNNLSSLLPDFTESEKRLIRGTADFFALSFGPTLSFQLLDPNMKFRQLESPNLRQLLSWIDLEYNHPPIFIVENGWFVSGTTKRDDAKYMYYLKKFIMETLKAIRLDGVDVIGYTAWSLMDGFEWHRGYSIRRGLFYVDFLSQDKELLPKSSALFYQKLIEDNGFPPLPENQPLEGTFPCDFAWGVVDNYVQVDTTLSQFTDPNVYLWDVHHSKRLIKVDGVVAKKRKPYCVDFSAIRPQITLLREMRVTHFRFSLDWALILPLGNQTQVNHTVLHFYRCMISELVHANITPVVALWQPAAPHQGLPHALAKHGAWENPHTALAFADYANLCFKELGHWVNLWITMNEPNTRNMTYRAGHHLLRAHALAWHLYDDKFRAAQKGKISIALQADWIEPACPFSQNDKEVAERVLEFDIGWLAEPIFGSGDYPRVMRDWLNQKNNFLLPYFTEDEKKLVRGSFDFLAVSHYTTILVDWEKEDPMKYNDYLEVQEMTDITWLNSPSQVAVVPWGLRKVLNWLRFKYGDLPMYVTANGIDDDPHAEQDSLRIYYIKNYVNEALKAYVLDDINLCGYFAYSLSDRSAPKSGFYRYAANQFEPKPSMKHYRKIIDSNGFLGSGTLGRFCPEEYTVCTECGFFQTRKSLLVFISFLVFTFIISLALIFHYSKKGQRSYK
T2 sequence (O35082 35-1014, one chain of several): as above

Row | rightward shift of the dose-response curve compared to full-length FGF23 [1] [fold] | fold reduced potency compared to the FGF23^180-251 peptide [2] [fold] | fold reduced potency compared to the FGF23^180-251 peptide [3] [fold] | Binder
1 | ~3 |  |  | N-terminally hexahistidine-tagged 72-amino acid C-terminal tail of human FGF23 (S180 to I251), FGF23^180-251 (Expressed in E. coli; also called FGF23 C-terminal tail peptide; C-terminal tail of FGF23; not shown: N-terminal hexahistidine tag (six His)) peptide: SAEDDSERDPLNVLKPRARMTPAPASCSQELPSAEDNSPMASDPLGVVRGGRVNTHAGGTGPEGCRPFAKFI
2 | ~6 | 100 | > 100 | SAEDDSERDPLNVLKPRARMTPAPAS (Made by solid phase synthesis (GenScript)) [FGF23 C-terminal region peptide (S180 to S205), FGF23^180-205]
